# Assay results published in PMC5308906 (2016).
# No end group written: not given here.
# T1: ψIRS1-Cargo V5 (Homo sapiens, UniProt Q05655, not fully specified)
# T1 chain: EKARLSYS
# B1: θPKC (protein)
# chain: MSPFLRIGLSNFDCGSCQSCQGEAVNPYCAVLVKEYVESENGQMYIQKKPTMYPPWDSTFDAHINKGRVMQIIVKGKNVDLISETTVELYSLAERCRKNNGKTEIWLELKPQGRMLMNARYFLEMSDTKDMNEFETEGFFALHQRRGAIKQAKVHHVKCHEFTATFFPQPTFCSVCHEFVWGLNKQGYQCRQCNAAIHKKCIDKVIAKCTGSAINSRETMFHKERFKIDMPHRFKVYNYKSPTFCEHCGTLLWGLARQGLKCDACGMNVHHRCQTKVANLCGINQKLMAEALAMIESTQQARCLRDTEQIFREGPVEIGLPCSIKNEARPPCLPTPGKREPQGISWESPLDEVDKMCHLPEPELNKERPSLQIKLKIEDFILHKMLGKGSFGKVFLAEFKKTNQFFAIKALKKDVVLMDDDVECTMVEKRVLSLAWEHPFLTHMFCTFQTKENLFFVMEYLNGGDLMYHIQSCHKFDLSRATFYAAEIILGLQFLHSKGIVYRDLKLDNILLDKDGHIKIADFGMCKENMLGDAKTNTFCGTPDYIAPEILLGQKYNHSVDWWSFGVLLYEMLIGQSPFHGQDEEELFHSIRMDNPFYPRWLEKEAKDLLVKLFVREPEKRLGVRGDIRQHPLFREINWEELERKEIDPPFRPKVKSPFDCSNFDKEFLNEKPRLSFADRALINSMDQNMFRNFSFMNPGMERLIS
# Biological target: T1, ψIRS1-Cargo V5
# Assay: AGILE Dev Kit binding assay
binder,measurement,value
B1,Kd,200 nM
